Reference: publication PMC8733265, “Microscale thermophoresis suggests a new model of regulation of cardiac myosin function via interaction with cardiac myosin-binding protein C” (The Journal of Biological Chemistry, 2021)

Legend:
[1] = target: T1, C0C2, cMyBP-C spanning domains C0 to C2 (UniProt Q14896 1-452); assay: MST; Monolith NT.115; 100 nmol/l Alexa647-labelled protein fixed, partner titrated; 20 mmol/l Mops pH 7, 1 mmol/l MgCl2, 50 mmol/l KCl, 1 mmol/l DTT, 0.05% Tween-20; details: both partners purified
T1 construct: also called N-terminal domains (NTD) of cMyBP-C; C0-P/A-C1-m-C2; source: E. coli BL21(DE3)-RIPL, purified (HisTrapFF, TEV, ion exchange); not shown: His tag, N-terminal, cleaved
T1 sequence (Q14896 1-452): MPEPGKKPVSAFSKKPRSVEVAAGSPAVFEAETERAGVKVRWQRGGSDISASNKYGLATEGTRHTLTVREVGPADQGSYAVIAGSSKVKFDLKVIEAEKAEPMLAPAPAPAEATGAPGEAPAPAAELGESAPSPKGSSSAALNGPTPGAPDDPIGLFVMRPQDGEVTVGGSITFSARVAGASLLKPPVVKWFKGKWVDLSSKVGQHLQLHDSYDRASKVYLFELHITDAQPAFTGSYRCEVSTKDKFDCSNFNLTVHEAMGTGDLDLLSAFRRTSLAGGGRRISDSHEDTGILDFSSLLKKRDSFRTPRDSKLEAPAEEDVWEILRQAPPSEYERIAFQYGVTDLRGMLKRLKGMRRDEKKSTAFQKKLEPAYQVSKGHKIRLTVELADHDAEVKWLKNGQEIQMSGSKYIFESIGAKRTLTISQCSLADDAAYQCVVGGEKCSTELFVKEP

[2] = target: T2, C0C2-3P, tris-phosphorylated C0C2 (UniProt Q14896 1-452, tris-phosphorylated by PKA (m-motif; sites not given)); assay: as above; details: both partners purified
T2 construct: not shown: His tag, N-terminal, cleaved
T2 sequence (Q14896 1-452): as above

Kd [1]: 2.7 µM
Kd [2]: 5 µM
B1: phospho-miniHMM (miniHMM phosphorylated in vitro by cMLCK) (complex)
chain 1: RDSLLVIQWNIRAFMGVKNWPWMKLYFKIKPLLKSAEREKEMASMKEEFTRLKEALEKSEARRKELEEKMVSLLQEKNDLQLQVQAEQDNLADAEERCDQLIKNKIQLEAKVKEMNERLEDEEEMNAELTAKKRKLEDECSELKRDIDDLELTLAK
chain 2: APKKAKKRAGGANSNVFSMFEQTQIQEFKEAFTIMDQNRDGFIDKNDLRDTFAALGRVNVKNEEIDEMIKEAPGPINFTVFLTMFGEKLKGADPEETILNAFKVFDPEGKGVLKADYVREMLTTQAERFSKEEVDQMFAAFPPDVTGNLDYKNLVHIITHGEEKD
modifications: phosphorylated by cMLCK to about 1 mol Pi/mol RLC (site not given)
